Measured values from patent US9352039B2, “Method of reducing the number of EMT and MET type breast cancer stem cells” (The Regents of the University of Michigan, priority 2012, dated 2016).

Columns and labels:
Assay type in all cases: cell-based, human
MCF-10A cells = assay: flow cytometry for EpCAM/CD49f, ALDH (Aldefluor) and CD24/CD44 after inducible lentiviral microRNA over-expression; conditions: for ALDH-positive CSC population / CD24−CD44+ population: expression of the microRNA in MCF10A cells and several cancer cell lines
Description: Cells were transduced with pTRIPZ-microRNA-RFP lentiviruses with inducible systems and selected with puromycin, and microRNAs were induced with or without (CONTROL) Doxycycline and analyzed for RFP, EpCAM and CD49f.
(§1) Furthermore, forced over-expression of mir-100 or mir-221 increased the proportion of EpCAM^−CD49f^+ cells in non-transformed MCF-10A cells as well as primary normal human mammary cells isolated from reduction mammoplasty specimens. […] This was followed by an EMT/MET transition in the Aldefluor-positive CSC population. Since TGFβ is a major regulator of EMT, abrogation of this signaling pathway may facilitate MET.
Of interest, it has been recently reported that the mir106b-25 cluster including mir-93 is induced in the early stages of nuclear reprogramming of fibroblasts into IPS cells. This is accompanied by an EMT to MET conversion in these cells which is obligatory for reprogramming to occur.
(§2) A TET on/off inducible system was established to over-express microRNAs in a lentiviral vector tagged with RFP. Utilizing this system, it was shown that forced over-expression of mir-93 increases the proportion of EpCAM^+CD49f^+ and ALDH^+ cells (FIG. 5). […] Furthermore, forced over-expression of mir-100 increased the proportion of EpCAM^−CD49f^+ cells (FIG. 5).

SUM159 cells [1] = assay: in vitro matrigel invasion assay; conditions: microRNA induced with Doxycycline vs control; serum as attractant
Description: The invasive capability of pTRIPZ-mir-93-RFP cells or pTRIPZ-mir-100-RFP cells with or without (CONTROL) Doxycycline was assessed by matrigel invasion assay. […] were plated in Matrigel and serum was utilized as the attractant.
as §2
Assays were done in triplicate in invasion chambers pre-coated with reduced growth factor matrix from BD Biosciences. Cells were added to the upper chamber in […] of serum-free medium. For the invasion assay, 20,000 cancer cells were seeded on the coated chamber, and the lower chamber was filled with […] of medium (Cambrex) with FBS. After 37 hours of incubation, the cells on the underside of the upper chambers were stained with the blue stain in the Cell Invasion Assay Kit (Chemicon; cat. #ECM550) and counted using light microscopy.

TGFβR2 = assay: TGFβ signaling after mir-93 induction; conditions: by targeting TGFβR2; effect seen within twelve hours of induction
Description: as §1

SUM159 cells [2] = assay: induction of MET and EMT/MET marker expression in the ALDH-positive CSC population after mir-93 induction; conditions: induction of the microRNA in EMT SUM159 cells
Description: as §1, §2

[3] = forced over-expression of the microRNA
[4] = forced over-expression of the microRNA, MCF-10A and primary normal human mammary cells

Row | Molecule | ALDH-positive CSC population (MCF-10A cells) | CD24−CD44+ population (MCF-10A cells) | ALDH+ CSC population (MCF-10A cells; [3]) | proportion of CD24−CD44+ CSC cells (MCF-10A cells; [3]) | proportion of EpCAM−CD49f+ cells (MCF-10A cells; [4]) | cell invasion (SUM159 cells [1]) | TGFβ signaling (TGFβR2) | proportion of EpCAM+CD49f+ and ALDH+ cells (MCF-10A cells; forced over-expression of the microRNA (TET inducible lentiviral vector), MCF-10A and primary normal human mammary cells) | MET in the ALDH-positive CSC population (SUM159 cells [2]) | expression of E-Cadherin and Claudin (SUM159 cells [2]; ALDH-positive CSC population) | expression of mesenchymal genes (vimentin, N-Cadherin, Twist) (SUM159 cells [2]; ALDH-positive CSC population)
1 | mir-100: microRNA (SEQ ID NO:2) over-expressed from a doxycycline-inducible pTRIPZ lentiviral vector tagged with RFP (nucleic acid, listed as Homo sapiens) CCTGTTGCCACAAACCCGTAGATCCGAACTTGTGGTATTAGTCCGCACAAGCTTGTATCTATAGGTATGTGTCTGTTAGG | decrease | increase | decrease | increase | increased | increased cell invasion | – | – | – | – | –
2 | mir-221: microRNA (SEQ ID NO:3), forced over-expression in mammary cells (nucleic acid, listed as Homo sapiens) TGAACATCCAGGTCTGGGGCATGAACCTGGCATACAATGTAGATTTCTGTGTTCGTTAGGCAACAGCTACATTGTCTGCTGGGTTTCAGGCTACCTGGAAACATGTTCTC | decrease | increase | – | – | increased | – | – | – | – | – | –
3 | mir-93: microRNA (SEQ ID NO:1) over-expressed from a doxycycline-inducible pTRIPZ lentiviral vector tagged with RFP (nucleic acid, listed as Homo sapiens) CTGGGGGCTCCAAAGTGCTGTTCGTGCAGGTAGTGTGATTACCCAACCTACTGCTGAGCTAGCACTTCCCGAGCCCCCGG | – | – | – | – | – | decreased cell invasion | inhibits TGFβ signaling | increases | induces an MET | increased expression | down-regulation
